For the experiment, the target named is T1, Tau1 (19-34) peptide labelled with rhodamine (human, also: labelled with rhodamine isothiocyanate, site not given here).
T1 construct: microtubule-associated protein Tau, human, residues 19-34; also called Tau1R; source: synthetic peptide (GL Biochem Ltd.), labelled with rhodamine isothiocyanate
T1 peptide: GLGDRKDQGGYTMHQD
Nature of the experiment: far-Western, overlay or dot blot; mixtures of a fluorescein-labelled (green) and a rhodamine-labelled (red) peptide spotted on a nitrocellulose membrane; yellow colour read as binding. Conditions: both partners purified.

No end group written: not given here.

B1: APP1 (390-412) peptide labelled with fluorescein (peptide)
peptide: HFQKAKERLEAKHRERMSQVMRE
modifications: also: labelled with fluorescein isothiocyanate, site not given here
notes: amyloid precursor protein, human, residues 390-412; The discussion names the region as 389-411; also called APP1F; App1F; source: synthetic peptide (GL Biochem Ltd.), labelled with fluorescein isothiocyanate
With B1, the binding result is reported as “binds”.

The values above are taken from publication PMC7246762, “Peptide Interference with APP and Tau Association: Relevance to Alzheimer’s Disease Amelioration” (International Journal of Molecular Sciences, 2020).
